# Laboratory results as given in doi:10.1101/2022.11.15.516482 (bioRxiv, 2022).
# Key:
# [1] = molecular target: Salpingoeca rosetta caveolin (F2U793) (Salpingoeca rosetta); experiment: cryo-EM structure
# cryo-EM structure = molecular target: the molecule itself; experiment: cryo-EM structure
Molecule,stoichiometry N [1],stoichiometry N (cryo-EM structure)
Salpingoeca rosetta caveolin (F2U793) (natural protein),11,
"Strongylocentrotus purpuratus caveolin (A0A7M7T4C2) (natural protein, UniProt A0A7M7T4C2 1-159, looked up) MELIHPENGPSGTVQVPLIQGVDQSDTEDVYRLSPHVTTGFADTFKESNDIMGFSFMEKVNGAIYKYTHFAFYAVLNLLLAPFIAFSFGLSFAVMHFAVVWFVQPIMKLYYVWLRVFNLAYEPALRLVCDPIHRSIALILSGIKGQFKMNSSDVKTSQV",,11
